Laboratory results as given in US20240417475A1 (AFFIMED, published 2024).

Columns and labels:
[1] = target: T1, cynomolgus FOLR1 expressed on CHO cells (cAg_126) (cynomolgus, UniProt A0A2K5U044 25-234); experiment: flow cytometry on cyFOLR1 CHO cells (cAg_126), one-site fit of MFI, Exp. 2
T1 construct: whole, on cells; also called cyFOLR1
Description: (§1) To analyze binding of different antibody constructs to CHO cells transfected with human FOLR1 (cAg_125) and cynomolgus FOLR1 (cAg_126), 1-5×10⁵ were resuspended in 100 μL FACS buffer (PBS (BioWest, cat.: L0615-500) containing 2% heat-inactivated FCS (Invitrogen, cat.: 10500-064), and 0.1% sodium azide (Sigma, cat.: S8032_100G)) in round-bottom 96-well microtiter plates. After washing in FACS buffer, cells were incubated in 50 μL FACS buffer without antibodies or with titrated antibodies starting at a concentration of 1000 nM followed by eleven 3-fold serial dilutions for 40-50 min on ice in the dark. […] After washing, binding was measured by flow cytometry and mean fluorescence intensities (MFI) of cell samples were calculated and corrected for background staining using control cells stained with secondary antibodies only.
(§2) Binding of antibody constructs to huFOLR1-as well as cyFOLR1-transfected CHO cells was measured by flow cytometry. Equilibrium dissociation constants (KD) of antibody binding were calculated by plotting MFI values and fitting a non-linear regression model for one-site binding to hyperbolic dose-response curves using GraphPad Prism.

[2] = target: T1, cynomolgus FOLR1 expressed on CHO cells …; experiment: flow cytometry on cyFOLR1 CHO cells (cAg_126), one-site fit of MFI, Exp. 1
Description: as §1, §2

[3] = target: T2, human CD16A (158F) expressed on CHO cells (cAg_34) (human, UniProt P08637 17-254); experiment: flow cytometry on huCD16A (158F)-transfected CHO cells (cAg_34), on ice, FITC goat anti-human IgG detection
T2 construct: also called huCD16A-transfected CHO cells
T2 sequence (P08637 17-254 limits assumed): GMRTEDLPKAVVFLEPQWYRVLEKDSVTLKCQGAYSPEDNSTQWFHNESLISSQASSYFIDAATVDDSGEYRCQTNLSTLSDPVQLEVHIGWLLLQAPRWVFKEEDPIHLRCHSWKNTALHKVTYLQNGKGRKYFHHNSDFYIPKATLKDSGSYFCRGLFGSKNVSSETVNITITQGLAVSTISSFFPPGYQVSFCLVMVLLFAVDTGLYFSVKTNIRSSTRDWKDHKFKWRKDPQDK
Description: (§3) After washing in FACS buffer, cells were incubated in 50 μL FACS buffer without antibodies or with titrated antibodies starting at a concentration of 1000 nM followed by elven 3-fold serial dilutions for 40-50 min on ice in the dark. […] After washing, binding was measured by flow cytometry and mean fluorescence intensities (MFI) of cell samples were calculated and corrected for background staining using control cells stained with secondary antibodies only.

[4] = target: T1, cynomolgus FOLR1 expressed on CHO cells …; experiment: flow cytometry on cyFOLR1-transfected CHO cells (cAg_126), on ice, FITC goat anti-human IgG detection
Description: as §1

[5] = target: T1, cynomolgus FOLR1 expressed on CHO cells …; experiment: flow cytometry on cyFOLR1 CHO cells (cAg_126), one-site fit of MFI, mean
Description: as §1, §2

[6] = target: T2, human CD16A (158F) expressed on CHO …; experiment: flow cytometry on huCD16A (158F) CHO cells (cAg_34), one-site fit of MFI, Exp. 1
Description: as §3
(§4) Equilibrium dissociation constants (KD) of antibody binding were calculated by plotting MFI values and fitting a non-linear regression model for one-site binding to hyperbolic dose-response curves using GraphPad Prism.

[7] = target: T3, cynomolgus CD16 expressed on CHO cells (cAg_36) (cynomolgus, UniProt Q8SPW2 17-254); experiment: flow cytometry on cyCD16 CHO cells (cAg_36), one-site fit of MFI, Exp. 2
T3 construct: whole, on cells; also called cyCD16
T3 sequence (Q8SPW2 17-254): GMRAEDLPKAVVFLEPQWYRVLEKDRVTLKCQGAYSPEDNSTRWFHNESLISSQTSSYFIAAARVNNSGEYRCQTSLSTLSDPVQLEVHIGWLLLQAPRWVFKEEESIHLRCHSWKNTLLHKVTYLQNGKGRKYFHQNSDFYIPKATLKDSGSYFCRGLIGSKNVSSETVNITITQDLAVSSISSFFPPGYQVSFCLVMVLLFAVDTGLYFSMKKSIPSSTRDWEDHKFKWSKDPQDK
Description: as §3, §4

[8] = target: T4, human FOLR1 expressed on CHO cells (cAg_125) (human, UniProt P15328 25-234); experiment: flow cytometry on huFOLR1 CHO cells (cAg_125), one-site fit of MFI, Exp. 2
T4 construct: whole, on cells; also called huFOLR1
T4 sequence (P15328 25-234): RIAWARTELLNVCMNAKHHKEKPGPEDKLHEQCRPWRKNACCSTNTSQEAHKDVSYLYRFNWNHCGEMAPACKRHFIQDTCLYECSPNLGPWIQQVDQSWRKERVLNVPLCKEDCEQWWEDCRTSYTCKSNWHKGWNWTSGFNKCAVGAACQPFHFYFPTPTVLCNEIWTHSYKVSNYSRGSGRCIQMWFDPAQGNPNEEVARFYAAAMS
Description: as §1, §2

[9] = target: T5, human CD16A (158V) expressed on CHO cells (cAg_35) (human, UniProt P08637 17-254); experiment: flow cytometry on huCD16A (158V) CHO cells (cAg_35), one-site fit of MFI, Exp. 1
T5 construct: also called huCD16A (158V)
T5 sequence (P08637 17-254 F176V limits assumed): as the sequence (P08637 17-254 limits assumed) above, with F160V counted along it
Description: as §3, §4

[10] = target: T5, human CD16A (158V) expressed on CHO …; experiment: flow cytometry on huCD16A (158V)-transfected CHO cells (printed sAg_35), on ice, FITC goat anti-human IgG detection
Description: as §3

[11] = target: T4, human FOLR1 expressed on CHO cells …; experiment: flow cytometry on huFOLR1 CHO cells (cAg_125), one-site fit of MFI, Exp. 3
Description: as §1, §2

[12] = target: T3, cynomolgus CD16 expressed on CHO cells …; experiment: flow cytometry on cyCD16 CHO cells (cAg_36), one-site fit of MFI, Exp. 3
Description: as §3, §4

[13] = target: T2, human CD16A (158F) expressed on CHO …; experiment: flow cytometry on huCD16A (158F) CHO cells (cAg_34), one-site fit of MFI, Exp. 2
Description: as §3, §4

[14] = target: T5, human CD16A (158V) expressed on CHO …; experiment: flow cytometry on huCD16A (158V) CHO cells (cAg_35), one-site fit of MFI, Exp. 2
Description: as §3, §4

[15] = target: T3, cynomolgus CD16 expressed on CHO cells …; experiment: flow cytometry on cyCD16 CHO cells (cAg_36), one-site fit of MFI, Exp. 1
Description: as §3, §4

[16] = target: T3, cynomolgus CD16 expressed on CHO cells …; experiment: flow cytometry on cyCD16 CHO cells (cAg_36), one-site fit of MFI, mean
Description: as §3, §4

[17] = target: T1, cynomolgus FOLR1 expressed on CHO cells …; experiment: flow cytometry on cyFOLR1 CHO cells (cAg_126), one-site fit of MFI, Exp. 3
Description: as §1, §2

T1 sequence (A0A2K5U044 entry or part of it): as the sequence (P15328 25-234) above, with I2T, W4R, R37K, A146P, H171Y counted along it

B1: scFv-IgAb_387 (FOLR1_1×CD16a3) (bispecific antibody)
heavy: EVQLVESGGGVVQPGRSLRLSCSASGFTFSGYGLSWVRQAPGKGLEWVAMISSGGSYTYYADSVKGRFAISRDNAKNTLFLQMDSLRPEDTGVYFCARHGDDPAWFAYWGQGTPVTVSSASTKGPSVFPLAPSSKSTSGGTAALGCLVKDYFPEPVTVSWNSGALTSGVHTFPAVLQSSGLYSLSSVVTVPSSSLGTQTYICNVNHKPSNTKVDKKVEPKSCDKTHTCPPCPAPEFEGGPSVFLFPPKPKDTLMISRTPEVTCVVVAVSHEDPEVKFNWYVDGVEVHNAKTKPREEQYNSTYRVVSVLTVLHQDWLNGKEYKCKVSNKALPAPIEKTISKAKGQPREPQVYTLPPSREEMTKNQVSLTCLVKGFYPSDIAVEWESNGQPENNYKTTPPVLDSDGSFFLYSKLTVDKSRWQQGNVFSCSVMHEALHNHYTQKSLSLSPGGGGGSGGGGSGGGGSGGGGSGGGGSGGGGSSYELTQPLSVSVALGQTARITCGGNNIGSKSVHWYQQKPGQAPVLVIYQDKKRPSGIPERFSGSNSGNTATLTISRAQAGDEADYYCQVWDDYIVLFGCGTKLTVLGGSGGSGGSGGSGGSGGSGGSQVQLVQSGAEVKKPGASVKVSCKASGYTFTNYYMQWVRQAPGQCLEWMGIINPSGGVTSYAQKFQGRVTMTRDTSTSTVYMELSSLRSEDTAVYYCARGSAYYYDFADYWGQGTLVTVSSG
light: DIQLTQSPSSLSASVGDRVTITCSVSSSISSNNLHWYQQKPGKAPKPWIYGTSNLASGVPSRFSGSGSGTDYTFTISSLQPEDIATYYCQQWSSYPYMYTFGQGTKVEIKRTVAAPSVFIFPPSDEQLKSGTASVVCLLNNFYPREAKVQWKVDNALQSGNSQESVTEQDSKDSTYSLSSTLTLSKADYEKHKVYACEVTHQGLSSPVTKSFNRGEC
modifications: Chemically biotinylated (NHS-PEG4-biotin) in Example 22 only.
notes: Tetravalent bispecific scFv-IgAb; also called FOLR1×CD16A scFv-IgAb_387; FOLR1/CD16A scFv-IgAb_387; copies: 2 + 2
With B1 the Kd [1] was 15.3 nM, the Kd [2] was 14.9 nM and the “EC50 (read off the curve)” value [3] was about 20 nM. The “EC50 (read off the curve)” value [4] was about 20 nM, the Kd [5] was 16.3 nM and the Kd [6] was 16 nM. It also gave a Kd [7] of 26.2 nM, a Kd [8] of 31.6 nM and a Kd [9] of 15.8 nM. For the same binder, the “EC50 (read off the curve)” value [10] was about 50 nM, the Kd [11] was 40.6 nM and the Kd [12] was 22.8 nM. It also gave a Kd [13] of 28.5 nM, a Kd [14] of 29.1 nM and a Kd [15] of 26.6 nM. For the same binder, the Kd [16] was 25.2 nM and the Kd [17] was 18.8 nM.

B2: scFv-IgAb_381 (FOLR1_1×CD16a4) (bispecific antibody)
chain 1: EVQLVESGGGVVQPGRSLRLSCSASGFTFSGYGLSWVRQAPGKGLEWVAMISSGGSYTYYADSVKGRFAISRDNAKNTLFLQMDSLRPEDTGVYFCARHGDDPAWFAYWGQGTPVTVSSASTKGPSVFPLAPSSKSTSGGTAALGCLVKDYFPEPVTVSWNSGALTSGVHTFPAVLQSSGLYSLSSVVTVPSSSLGTQTYICNVNHKPSNTKVDKKVEPKSCDKTHTCPPCPAPEFEGGPSVFLFPPKPKDTLMISRTPEVTCVVVAVSHEDPEVKFNWYVDGVEVHNAKTKPREEQYNSTYRVVSVLTVLHQDWLNGKEYKCKVSNKALPAPIEKTISKAKGQPREPQVYTLPPSREEMTKNQVSLTCLVKGFYPSDIAVEWESNGQPENNYKTTPPVLDSDGSFFLYSKLTVDKSRWQQGNVFSCSVMHEALHNHYTQKSLSLSPGGGGGSGGGGSGGGGSGGGGSGGGGSGGGGSSYELTQPLSVSVALGQTARITCGGHNIGSKNVHWYQQKPGQAPVLVIYQDNKRPSGIPERFSGSNSGNTATLTISRAQAGDEADYYCQVWDNYNVLFGCGTKLTVLGGSGGSGGSGGSGGSGGSGGSQVQLVQSGAEVKKPGASVKVSCKASGYTFTSYYMHWVRQAPGQCLEWMGAIEPTYGSTSYAQKFQGRVTMTRDTSTSTVYMELSSLRSEDTAVYYCARGSAYYYDFADYWGQGTLVTVS
chain 2: B1 light
notes: also called FOLR1×CD16A scFv-IgAb_381
For B2, the Kd [1] was 11.8 nM, the Kd [2] was 11.5 nM and the “EC50 (read off the curve)” value [3] was about 30 nM. The “EC50 (read off the curve)” value [4] was about 10 nM, the Kd [5] was 12.4 nM and the Kd [6] was 22.1 nM. It also gave a Kd [7] of 31.7 nM, a Kd [8] of 24.4 nM and a Kd [9] of 22 nM. For the same binder, the “EC50 (read off the curve)” value [10] was about 60 nM, the Kd [11] was 29.3 nM and the Kd [12] was 28.2 nM. It also gave a Kd [13] of 29.3 nM, a Kd [14] of 43.3 nM and a Kd [15] of 38.6 nM. For the same binder, the Kd [16] was 32.8 nM and the Kd [17] was 14 nM.
